Test results as given in patent US20250255960A1 (HRAIN BIOTECHNOLOGY, published 2025).

Columns and labels:
Fc-labeled CD70 antigen [1] = target: T1, Fc-labeled CD70 antigen; experiment: flow cytometry: CAR-transduced T cells stained with Fc-labeled CD70 antigen (1:100) and secondary antibody PE-Fc; NT control 0.61
T1 construct: soluble antigen used at 1:100 to stain CAR-T cells; also called detected with the secondary antibody PE-Fc (axis label PE-Fc)
T1 sequence (P32970 whole entry, species assumed, looked up): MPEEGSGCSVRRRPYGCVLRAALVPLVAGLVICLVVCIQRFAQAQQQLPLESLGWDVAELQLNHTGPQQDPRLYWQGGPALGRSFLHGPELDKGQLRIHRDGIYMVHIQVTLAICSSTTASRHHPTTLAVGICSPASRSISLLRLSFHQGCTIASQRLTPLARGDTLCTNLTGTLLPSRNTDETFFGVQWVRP
Experimental: The CAR positive rate of the retrovirus-infected T lymphocytes were detected 72 hours after virus infection. For the chimeric antigen receptor group containing CD70-2A5-BBz, CD70-5C10-BBz, CD70-8A6-BBz, CD70-8B4-BBz, CD70-8E1-BBz, CD70-8F9-BBz, CD70-9D8-BBz, CD70-11C9-BBz and ARGX-BBz clone and the negative uninfected control group NT, 1×10⁶ cells from the above two groups respectively, were taken and centrifuged to remove the medium, the cells were washed once with PBS, and resuspended in 100 μL of the flow loading tube (BD). Fc-labeled CD70 antigen (1:100) was added and incubated for 30 minutes at 4° C. After washing the cells once with PBS, the secondary antibody PE-Fc was added according to the recommended ratio and incubated for 30 minutes in the dark. After the cells were washed once with PBS, the cells were resuspended in 200 μL of PBS and tested on the machine. The results of flow cytometric analysis of CAR-T positive rate are shown by FIG. 11.

Fc-labeled CD70 antigen [2] = target: T1, Fc-labeled CD70 antigen; experiment: flow cytometry: CAR-transduced T cells stained with Fc-labeled CD70 antigen (1:100) and secondary antibody PE-Fc; NT control 0.79
Experimental: The CAR positive rate of the retrovirus-infected T lymphocytes was detected 72 hours after virus infection. For the chimeric antigen receptor group containing CD70-2A5-BBz, CD70-8B4-BBz, CD70-9D8-BBz, CD70-11C9-BBz and ARGX-BBz clones and the negative uninfected control NT, 1×10⁶ cells from the above two groups respectively, were taken and centrifuged to remove the medium, washed once with PBS, and resuspended in 100 μL in a flow loading tube (BD). Fc-labeled CD70 antigen (1:100) was added and incubated for 30 minutes at 4° C. After washing the cells once with PBS, the secondary antibody PE-Fc was added according to the recommended ratio and incubated for 30 minutes in the dark. After the cells were washed once with PBS, the cells were resuspended in 200 μL of PBS and tested on the machine. The results of flow cytometric analysis of CAR-T positive rate are shown by FIG. 16.

[3] = target: T2, recombinant human CD27-his protein (human, UniProt P26842 21-192, limits assumed); experiment: ELISA; CD70-alFc coated in 4-fold dilution from 100 ng, 0.1 ug/mL CD27-his in solution, HRP anti-his-tag detection; coated CD70-alFc titrated, CD27-his fixed at 0.1 µg/mL
T2 construct: Bought; also called commercial CD27; recombinant human CD27 protein; not shown: his tag
T2 sequence (looked up): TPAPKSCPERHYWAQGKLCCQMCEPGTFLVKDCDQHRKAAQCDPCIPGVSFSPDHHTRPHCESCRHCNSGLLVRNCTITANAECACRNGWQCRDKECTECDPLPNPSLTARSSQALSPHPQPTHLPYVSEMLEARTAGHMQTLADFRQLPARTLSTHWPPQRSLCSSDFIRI
Experimental: ELISA activity identification of recombinant human CD70-alFc protein with commercial CD27: recombinant human CD70-alFc protein was coated in a 4-fold gradient dilution package in an ELISA plate, the first well was coated with 100 ng, and sequentially diluted 4-fold (100 uL/well), incubated at 4° C. overnight, washed 3 times with 200 uL PBST the next day, and blocked with 1% BSA/PBS for 1 hour. The blocking solution was removed, 100 μL 0.1 μg/mL recombinant human CD27-his protein was added to each well, and incubated at 37° C. for 1 hour. After washing 3 times with 200 μL PBST, horseradish peroxidase-labeled rabbit anti-his-tag antibody (100 μL per well) diluted 1:4000 was added, and incubated at 37° C. for 1 hour. After washing 3 times with 200 μL PBST, 100 μL TMB chromogen solution was added for development at 37° C. for 10 minutes, 100 μL 1M hydrochloric acid was added to stop the reaction, and the absorbance value at OD₄₅₀ was obtained. The analysis results are shown by FIG. 2 and Table 1.

CD70-8B4 VHH-huIgG1-Fc = target: T3, CD70-8B4 VHH-huIgG1-Fc (human, UniProt P01857-1 104-330 = IgG part, limits assumed); experiment: BLI (Octet K2); biotinylated CD70 on SA probe, VHH-huFc as analyte at 200, 100, 50, 25 nM
T3 construct: domain: IgG1-Fc; Recombinant VHH-huIgG1-Fc made in 293F cells; also called VHH-huFc antibody CD70-8B4
Experimental: (§1) The affinity of four VHH-huFc antibodies CD70-2A5, CD70-8B4, CD70-9D8, and CD70-11C9 to human CD70 was analyzed by Octet K2 molecular interaction analyzer. The SA probe was immobilized with 200 μL 100 nM biotinylated recombinant human CD70 protein at a height of […]. […] The results are shown by FIG. 8 and Table 4.

CD70-2A5 VHH-huIgG1-Fc = target: T4, CD70-2A5 VHH-huIgG1-Fc (human, UniProt P01857-1 104-330 = IgG part, limits assumed); experiment: as above
T4 construct: domain: IgG1-Fc; Recombinant VHH-huIgG1-Fc made in 293F cells; also called VHH-huFc antibody CD70-2A5
Experimental: as §1

CD70-9D8 VHH-huIgG1-Fc = target: T5, CD70-9D8 VHH-huIgG1-Fc (human, UniProt P01857-1 104-330 = IgG part, limits assumed); experiment: as above
T5 construct: domain: IgG1-Fc; Recombinant VHH-huIgG1-Fc made in 293F cells; also called VHH-huFc antibody CD70-9D8
Experimental: as §1

CD70-11C9 VHH-huIgG1-Fc = target: T6, CD70-11C9 VHH-huIgG1-Fc (human, UniProt P01857-1 104-330 = IgG part); experiment: as above
T6 construct: domain: IgG1-Fc; Recombinant VHH-huIgG1-Fc made in 293F cells; also called VHH-huFc antibody CD70-11C9
Experimental: as §1

B1: 8F9-BBz (other)
chimeric antigen receptor chain: QLQLVESGGGLVQAGGSLRLSCAVSGRTSSTYAMAWFRQAPGKEREIVAVIGWSGGRTAYADSVKGRFTIAKDNAKNTVSLQMNSLKPEDTGVYYCAADSEQSSSSEGQAYGYEDWGQGTLVTVSSTTTPAPRPPTPAPTIASQPLSLRPEACRPAAGGAVHTRGLDFACDIYIWAPLAGTCGVLLLSLVITLYCRFSVVKRGRKKLLYIFKQPFMRPVQTTQEEDGCSCRFPEEEEGGCELRVKFSRSADAPAYQQGQNQLYNELNLGRREEYDVLDKRRGRDPEMGGKPRRKNPQEGLYNELQKDKMAEAYSEIGMKGERRRGKGHDGLYQGLSTATKDTYDALHMQALPPR
notes: also called CD70-8F9-BBz
CD70 CAR+ (positive rate of the cells) (Fc-labeled CD70 antigen [1]): 72.7%

B2: 9D8-BBz (other)
chimeric antigen receptor chain: QLQLVESGGGLVQPGGSLRLSCAVSGRTSSTYAMAWFRQAPGKEREIVAVITWSGGRTAYADSVKGRFTIAKDSAKNTVYLQMNSLKPEDTAVYYCAADSEVSSSSEGQYGYESWGQGTQVTVSSTTTPAPRPPTPAPTIASQPLSLRPEACRPAAGGAVHTRGLDFACDIYIWAPLAGTCGVLLLSLVITLYCRFSVVKRGRKKLLYIFKQPFMRPVQTTQEEDGCSCRFPEEEEGGCELRVKFSRSADAPAYQQGQNQLYNELNLGRREEYDVLDKRRGRDPEMGGKPRRKNPQEGLYNELQKDKMAEAYSEIGMKGERRRGKGHDGLYQGLSTATKDTYDALHMQALPPR
notes: also called CD70-9D8-BBz
CD70 CAR+ (positive rate of the cells) (Fc-labeled CD70 antigen [1]): 74.1% | CD70 CAR+ (positive rate of the cells) (Fc-labeled CD70 antigen [2]): 83%

B3: recombinant human CD70-alFc protein (Fc fusion)
chain: QRFAQAQQQLPLESLGWDVAELQLNHTGPQQDPRLYWQGGPALGRSFLHGPELDKGQLRIHRDGIYMVHIQVTLAICSSTTASRHHPTTLAVGICSPASRSISLLRLSFHQGCTIASQRLTPLARGDTLCTNLTGTLLPSRNTDETFFGVQWVRPELKTPQPQSQPECRCPKCPAPELLGGPSVFIFPPKPKDVLSISGRPEVTCVVVDVGQEDPEVSFNWYIDGAEVRTANTKPKEEQFNSTYRVVSVLPIRHQDWLTGKEFKCKVNNKALPAPIERTISKAKGQTREPQVYALAPHREELAKDTVSVTCLVKDFYPVDINIEWQRNGQPESEGTYATTPPQLDNDGTYFLYSKLSVGKNTWQRGETFTCVVMHEALPNHYTQKSITQSSGK
notes: range 39-193; Made in 293T cells; also called CD70-alIgG1Fc fusion protein; recombinant human CD70 protein
EC50 [3]: 8.69 ng/mL

B4: 2A5-BBz (other)
chimeric antigen receptor chain: EVQLVESGGGLVQAGGSLRLSCAASGSIFSINAMGWYRQAPGKQRELVAAITSGGSTNYADSVKGRFTISRDNAKNTVYLQMNSLKPEDTAVYYCNAGAGRAFPGDYWGQGTQVTVSSTTTPAPRPPTPAPTIASQPLSLRPEACRPAAGGAVHTRGLDFACDIYIWAPLAGTCGVLLLSLVITLYCRFSVVKRGRKKLLYIFKQPFMRPVQTTQEEDGCSCRFPEEEEGGCELRVKFSRSADAPAYQQGQNQLYNELNLGRREEYDVLDKRRGRDPEMGGKPRRKNPQEGLYNELQKDKMAEAYSEIGMKGERRRGKGHDGLYQGLSTATKDTYDALHMQALPPR
notes: also called CD70-2A5-BBz
CD70 CAR+ (positive rate of the cells) (Fc-labeled CD70 antigen [1]): 75.8% | CD70 CAR+ (positive rate of the cells) (Fc-labeled CD70 antigen [2]): 82.4%

B5: 5C10-BBz (other)
chimeric antigen receptor chain: QVQLVESGGGLVQAGGSLRLSCAASGSIFSMNAMGWYRQAPGKQRELVAAITSGGSTNYVDSVKGRFTISRDNAKNTVYLQMNSLKPEDTAVYYCNAGAGRAFPGDYWGQGTQVTVSSTTTPAPRPPTPAPTIASQPLSLRPEACRPAAGGAVHTRGLDFACDIYIWAPLAGTCGVLLLSLVITLYCRFSVVKRGRKKLLYIFKQPFMRPVQTTQEEDGCSCRFPEEEEGGCELRVKFSRSADAPAYQQGQNQLYNELNLGRREEYDVLDKRRGRDPEMGGKPRRKNPQEGLYNELQKDKMAEAYSEIGMKGERRRGKGHDGLYQGLSTATKDTYDALHMQALPPR
notes: also called CD70-5C10-BBz
CD70 CAR+ (positive rate of the cells) (Fc-labeled CD70 antigen [1]): 60%

B6: 11C9-BBz (other)
chimeric antigen receptor chain: QVQLVESGGGLVQPGGSLRLSCAASGFTLDYYAVGWFRQAPGKEREGVSCISSSSDGSTYYVDSVLGRFTISRNNAENTVYLQMNSLKPEDTAVYYCSTDVLTSCRSDRYLEVWGQGTLVTVSGTTTPAPRPPTPAPTIASQPLSLRPEACRPAAGGAVHTRGLDFACDIYIWAPLAGTCGVLLLSLVITLYCRFSVVKRGRKKLLYIFKQPFMRPVQTTQEEDGCSCRFPEEEEGGCELRVKFSRSADAPAYQQGQNQLYNELNLGRREEYDVLDKRRGRDPEMGGKPRRKNPQEGLYNELQKDKMAEAYSEIGMKGERRRGKGHDGLYQGLSTATKDTYDALHMQALPPR
notes: also called CD70-11C9-BBz
CD70 CAR+ (positive rate of the cells) (Fc-labeled CD70 antigen [1]): 51.3% | CD70 CAR+ (positive rate of the cells) (Fc-labeled CD70 antigen [2]): 70.9%

B7: 8B4-BBz (other)
chimeric antigen receptor chain: EVQLVESGGGFVQPGGSLRLSCAASGFTLDGYAVAWFRQAPGKEREGVSCISSSDGSTYYIDSVQGRFTITRNNAKNTVYLQMNSLKPEDTAVYYCTTDVLTSCRSDRWLEVWGQGTLVTVSSTTTPAPRPPTPAPTIASQPLSLRPEACRPAAGGAVHTRGLDFACDIYIWAPLAGTCGVLLLSLVITLYCRFSVVKRGRKKLLYIFKQPFMRPVQTTQEEDGCSCRFPEEEEGGCELRVKFSRSADAPAYQQGQNQLYNELNLGRREEYDVLDKRRGRDPEMGGKPRRKNPQEGLYNELQKDKMAEAYSEIGMKGERRRGKGHDGLYQGLSTATKDTYDALHMQALPPR
notes: also called CD70-8B4-BBz
CD70 CAR+ (positive rate of the cells) (Fc-labeled CD70 antigen [1]): 72.1% | CD70 CAR+ (positive rate of the cells) (Fc-labeled CD70 antigen [2]): 78.3%

B8: biotinylated recombinant human CD70 protein (ligand, UniProt P32970 39-193, looked up)
chain: QRFAQAQQQLPLESLGWDVAELQLNHTGPQQDPRLYWQGGPALGRSFLHGPELDKGQLRIHRDGIYMVHIQVTLAICSSTTASRHHPTTLAVGICSPASRSISLLRLSFHQGCTIASQRLTPLARGDTLCTNLTGTLLPSRNTDETFFGVQWVRP
modifications: biotin on the avi-tag
notes: also called biotinylated CD70 protein; biotinylated CD70 recombinant protein; not shown: avi-tag (and any other tag or Fc)
Kd (CD70-8B4 VHH-huIgG1-Fc): < 1 pM | koff (CD70-8B4 VHH-huIgG1-Fc): < 1e-07 s⁻¹ | kon (CD70-8B4 VHH-huIgG1-Fc): 45500 M⁻¹ s⁻¹ | Kd (CD70-2A5 VHH-huIgG1-Fc): < 1 pM | koff (CD70-2A5 VHH-huIgG1-Fc): < 1e-07 s⁻¹ | kon (CD70-2A5 VHH-huIgG1-Fc): 36700 M⁻¹ s⁻¹ | Kd (CD70-9D8 VHH-huIgG1-Fc): 1830 pM | koff (CD70-9D8 VHH-huIgG1-Fc): 0.000235 s⁻¹ | kon (CD70-9D8 VHH-huIgG1-Fc): 129000 M⁻¹ s⁻¹ | Kd (CD70-11C9 VHH-huIgG1-Fc): < 1 pM | koff (CD70-11C9 VHH-huIgG1-Fc): < 1e-07 s⁻¹ | kon (CD70-11C9 VHH-huIgG1-Fc): 264000 M⁻¹ s⁻¹
